According to the supplement of paper PMC10567573:

B1: GLT8D2 (parent)
chain: QEAKLLHWNGRHKPWDFPSVHNDL
B2: PTPN9 (parent)
chain: NKWTVQYNVSPLSWNVAVKFLMAR

Variants of: B1
Experiment: protein stability index of a GFP-peptide fusion (GPS, HEK-293T) (PSI 1-6); higher = more stable
Settings: c terminus: a fixed tail appended
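Further: lentivirally expressed fusions sorted by FACS into six bins by GFP to DsRed ratio, PSI derived from sequencing read proportions per bin multiplied by bin number.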

Variant | protein stability index
QEFKLLHWNGRHKPWDFPSVHNDL [A3F] | 2.25
QEGKLLHWNGRHKPWDFPSVHNDL [A3G] | 2.6
QERKLLHWNGRHKPWDFPSVHNDL [A3R] | 1.95
QEYKLLHWNGRHKPWDFPSVHNDL [A3Y] | 2.19
QEPKLLHWNGRHKPWDFPSVHNDL [A3P] | 2.33
QEVKLLHWNGRHKPWDFPSVHNDL [A3V] | 2.5
QEADLLHWNGRHKPWDFPSVHNDL [K4D] | 2.67
QEAPLLHWNGRHKPWDFPSVHNDL [K4P] | 2.83
QEAKLLHWNGRHGPWDFPSVHNDL [K13G] | 2.62
QEAKLLHWNGRHLPWDFPSVHNDL [K13L] | 2.26
QEAKLLHWNGRHNPWDFPSVHNDL [K13N] | 2.77
QEAKLLHWNGRHVPWDFPSVHNDL [K13V] | 2.1
QEAKLLHWNGRHTPWDFPSVHNDL [K13T] | 2.84
QEAKLLHWNGRHMPWDFPSVHNDL [K13M] | 2.94
QEAKLLHWNGRHQPWDFPSVHNDL [K13Q] | 2.7
QEAKLLHWNGRHKPWDFPSVHNFL [D23F] | 2.6
QEAKLLHWNGRHKPWDFPSVHNWL [D23W] | 2.48
QEAKLLHWNGRHKPWDFPSVHNYL [D23Y] | 1.98
QEAKLLHWNGRHKPWDFPSVHNKL [D23K] | 3.01
QEAKLLHWNGRHKPWDFPSVHNSL [D23S] | 2.17

Variant | protein stability index
QMAKLLHWNGRHKPWDFPSVHNDL [E2M] | 1.45
QGAKLLHWNGRHKPWDFPSVHNDL [E2G] | 2.39
QCAKLLHWNGRHKPWDFPSVHNDL [E2C] | 1.97
QLAKLLHWNGRHKPWDFPSVHNDL [E2L] | 1.96
QRAKLLHWNGRHKPWDFPSVHNDL [E2R] | 2.17
QEAKLLHWNGREKPWDFPSVHNDL [H12E] | 3.19
QEAKLLHWNGRQKPWDFPSVHNDL [H12Q] | 2.58
QEAKLLHWNGRHKPWDFPHVHNDL [S19H] | 2.58
QEAKLLHWNGRHKPWDFPKVHNDL [S19K] | 2.6
QEAKLLHWNGRHKPWDFPFVHNDL [S19F] | 2.31
QEAKLLHWNGRHKPWDFPGVHNDL [S19G] | 2.51
QEAKLLHWNGRHKPWDFPEVHNDL [S19E] | 3.92
QEAKLLHWNGRHKPWDFPVVHNDL [S19V] | 2.56
QEAKLLHWNGRHKPWDFPYVHNDL [S19Y] | 2.12
QEAKLLHWNGRHKPWDFPDVHNDL [S19D] | 3.43
QEAKLLHWNGRHKPWDFPIVHNDL [S19I] | 2.5
QEAKLLHWNGRHKPWDFPLVHNDL [S19L] | 1.96
QEAKLLHWNGHHKPWDFPSVHNDL [R11H] | 2.64
QEAKLLHWNGIHKPWDFPSVHNDL [R11I] | 2.76
QEAKLLHWNGGHKPWDFPSVHNDL [R11G] | 2.64

Variant | protein stability index
QEAKLLHWNGKHKPWDFPSVHNDL [R11K] | 2.61
QEAKLLHWNGEHKPWDFPSVHNDL [R11E] | 3.58
QEAKLLVWNGRHKPWDFPSVHNDL [H7V] | 2.1
QEAKLLTWNGRHKPWDFPSVHNDL [H7T] | 2.88
QEAKLLAWNGRHKPWDFPSVHNDL [H7A] | 2.87
QEAKLLRWNGRHKPWDFPSVHNDL [H7R] | 2.81
QEAKLLDWNGRHKPWDFPSVHNDL [H7D] | 3.16
QEAKLLCWNGRHKPWDFPSVHNDL [H7C] | 2.25
QEAKLLQWNGRHKPWDFPSVHNDL [H7Q] | 2.9
QEAKLLHWNDRHKPWDFPSVHNDL [G10D] | 2.46
QEAKLLHWNYRHKPWDFPSVHNDL [G10Y] | 2.9
QEAKLLHWNVRHKPWDFPSVHNDL [G10V] | 2.15
QEAKLLHWNSRHKPWDFPSVHNDL [G10S] | 2.69
QEAKLLHWNNRHKPWDFPSVHNDL [G10N] | 2.8
QEAKLLHWNMRHKPWDFPSVHNDL [G10M] | 2.53
QEAKLLHWNIRHKPWDFPSVHNDL [G10I] | 2.48
QEAKLLHWNPRHKPWDFPSVHNDL [G10P] | 2.69
QEAKLLHWNQRHKPWDFPSVHNDL [G10Q] | 2.7
QEAKLLHWNKRHKPWDFPSVHNDL [G10K] | 2.48

Variants of: B2
Experiment: as above
Settings: c terminus: a fixed tail appended

Variant | protein stability index
NKSTVQYNVSPLSWNVAVKFLMAR [W3S] | 2.1
NKITVQYNVSPLSWNVAVKFLMAR [W3I] | 2.66
NKETVQYNVSPLSWNVAVKFLMAR [W3E] | 1.91
NKPTVQYNVSPLSWNVAVKFLMAR [W3P] | 1.7
NKHTVQYNVSPLSWNVAVKFLMAR [W3H] | 1.02
NKGTVQYNVSPLSWNVAVKFLMAR [W3G] | 1.77
NKTTVQYNVSPLSWNVAVKFLMAR [W3T] | 1.46
NKVTVQYNVSPLSWNVAVKFLMAR [W3V] | 2.08
NKFTVQYNVSPLSWNVAVKFLMAR [W3F] | 2.59
NKYTVQYNVSPLSWNVAVKFLMAR [W3Y] | 2.57
NKRTVQYNVSPLSWNVAVKFLMAR [W3R] | 1.97
NKNTVQYNVSPLSWNVAVKFLMAR [W3N] | 1.31
NKQTVQYNVSPLSWNVAVKFLMAR [W3Q] | 2.35
NKWDVQYNVSPLSWNVAVKFLMAR [T4D] | 2.22
NKWAVQYNVSPLSWNVAVKFLMAR [T4A] | 2.55
NKWLVQYNVSPLSWNVAVKFLMAR [T4L] | 1.71
FKWTVQYNVSPLSWNVAVKFLMAR [N1F] | 3.7
WKWTVQYNVSPLSWNVAVKFLMAR [N1W] | 3.28

Variant | protein stability index
HKWTVQYNVSPLSWNVAVKFLMAR [N1H] | 2.3
VKWTVQYNVSPLSWNVAVKFLMAR [N1V] | 2.06
SKWTVQYNVSPLSWNVAVKFLMAR [N1S] | 1.54
NWWTVQYNVSPLSWNVAVKFLMAR [K2W] | 2.89
NRWTVQYNVSPLSWNVAVKFLMAR [K2R] | 1.66
NNWTVQYNVSPLSWNVAVKFLMAR [K2N] | 1.83
NLWTVQYNVSPLSWNVAVKFLMAR [K2L] | 3.54
NCWTVQYNVSPLSWNVAVKFLMAR [K2C] | 3.56
NMWTVQYNVSPLSWNVAVKFLMAR [K2M] | 3.14
NAWTVQYNVSPLSWNVAVKFLMAR [K2A] | 2.25
NYWTVQYNVSPLSWNVAVKFLMAR [K2Y] | 2.49
NDWTVQYNVSPLSWNVAVKFLMAR [K2D] | 3.84
NEWTVQYNVSPLSWNVAVKFLMAR [K2E] | 3.64
NIWTVQYNVSPLSWNVAVKFLMAR [K2I] | 3.27
NQWTVQYNVSPLSWNVAVKFLMAR [K2Q] | 2.27
NFWTVQYNVSPLSWNVAVKFLMAR [K2F] | 1.49
NTWTVQYNVSPLSWNVAVKFLMAR [K2T] | 3.13
